Here are results for 33 molecules from patent US20090297524A1 (DOMANTIS, published 2009).

In the assay the target is T1, Recombinant human CD40L (human, UniProt P29965 108-261, limits assumed).
T1 construct: also called CD40 ligand
T1 sequence (looked up): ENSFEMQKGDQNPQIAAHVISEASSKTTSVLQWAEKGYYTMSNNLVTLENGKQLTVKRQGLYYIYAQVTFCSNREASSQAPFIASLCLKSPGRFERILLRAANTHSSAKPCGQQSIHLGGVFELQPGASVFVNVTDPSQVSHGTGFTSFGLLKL
Description: CD40L/CD40-Fc receptor binding assay.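 Also: plate assay with coated human CD40-Fc, bound ligand detected via HRP anti-biotin antibody and TMB, OD at 450 nm, lower signal indicates stronger inhibition by dAb.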
Description: A 96 well Nunc Maxisorp assay plate was coated overnight at 4° C. with 100 μl per well of recombinant human CD40/Fc (R&D Systems) at 0.5 μg/ml in carbonate buffer. The plate was washed 3 times with 300 μl of 0.05% Tween/PBS and 3 times with 300 μl of PBS using a Tecan plate washer. The wells were blocked using 200 μl of PBS containing 2% (w/v) BSA and incubated for a minimum of 1 h at room temperature. The wells were washed as above, then 50 μl of purified dAb protein (or unpurified supernatant containing dAb from a micro-culture expression) was added to each well.
The plate was washed as described above, then 100 μl HRP conjugated anti-biotin antibody (1:5000 dilution in diluent) added to each well and the plate incubated for 1 hr at room temperature. The plate was washed again as described above using a Tecan plate washer and the assay developed using 100 μl of SureBlue 1-Component TMB MicroWell Peroxidase solution (the plate was left at room temperature for up to 20 min). The reaction was stopped by the addition of 100 μl M hydrochloric acid. The OD₄₅₀ₙₘ of the plate was assayed within 30 minutes of acid addition. The OD₄₅₀ₙₘ is proportional to the amount of bound streptavidin-HRP conjugate, therefore the greater the degree of dAb inhibition the lower the OD₄₅₀ₙₘ of the resulting signal.

B1: DOM-36 (other)
VL: DIQMTQSPSSLSASVGDRVTITCRASQDIDHNLEWYQQKPGKAPKLLIYDSSMLQSGVPSRFSGSGSGTDFTLTISSLQPEDFATYYCQQYHSIPVTFGQGTKVEIKR
notes: Vk dAb
Turning to B1, the binding result is recorded as “binds”.

B2: DOM.147 (other)
VL: DIQMTQSPSSLSASVGDRVTITCRASQEIETNLEWYQQKPGKAPKLLIYDSSHLQSGVPSRFSGSGSGTDFTLTISSLQPEDFATYYCQQYHQNPPTFGQGTKVEIKR
notes: Vk dAb
As to B2, the binding result is “binds”.

B3: DOM-47 (other)
VL: DIQMTQSPSSLSASVGDRVTITCRASQWIGDSLSWYQQKPGKAPKLLIYFGSYLQSGVPSRFSGSGSGTDFTLTISSLQPEDFATYYCQQYLHTPSTFGQGTKVEIKR
notes: Vk dAb
For B3, the binding result is “binds”.

B4: DOM-35 (other)
VL: DIQMTQSPSSLSASVGDRVTITCRASQFIGDSLSWYQQKPGKAPKLLIYFSSILQSGVPSRFSGSGSGTDFTLTISSLQPEDFATYYCQQYMDIPITFGQGTKVEIKR
notes: Vk dAb
Regarding B4, the binding result was “binds”.

B5: DOM-37 (other)
VL: DIQMTQSPSSLSASVGDRVTITCRASQQIETNLEWYQQKPGKAPKLLIYDGSWLQSGVPSRFSGSGSGTDFTLTISSLQPEDFATYYCQQYHSLPATFGQGTKVEIKR
notes: Vk dAb
Consider B5, for which the binding result is recorded as “binds”.

B6: DOM.156 (other)
VL: DIQMTQSPSSLSASVGDRVTITCRASQDIMDNLEWYQQKPGKAPKLLIYAASWLQSGVPSRFSGSGSGTDFTLTISSLQPEDFATYYCQQYHKLPVTFGQGTKVEIKR
notes: Vk dAb
For B6, the binding result is “binds”.

B7: DOM.143 (other)
VL: DIQMTQSPSSLSASVGDRVTITCRASQTIETNLEWYQQKPGKAPKLLIYDSSQLQSGVPSRFSGSGSGTDFTLTISSLQPEDLATYYCQQYHGYPTTFGQGTKVEIKR
notes: Vk dAb
On to B7, for which the binding result was “binds”.

B8: DOM.160 (other)
VL: DIQMTQSPSSLSASVGDRVTITCRASQDIEADLEWYQQKPGKAPKLLIYHSSELQSGVPSRFSGSGSGTDFTLTISSLQPEDFATYYCQQYHMSPVTFGQGTKVEIKR
notes: Vk dAb
Regarding B8, the binding result is “binds”.

B9: DOM.91 (other)
VL: DIQMTQSPSSLSASVGDRVTITCRASQQISDELNWYQQKPGKAPKLLIYAVSILQSGVPSRFSGSGSGTDFTLTISSLQPEDFATYYCQQWLSFPSTFGQGTKVEIKR
notes: Vk dAb
B9: the binding result is given as “binds”.

B10: DOM.150 (other)
VL: DIQMTQSPSSLSASVGDRVTITCRASQGIGTDLNWYQQKPGKAPKLLIYMGSYLQSGVPSRFSGSGSGTDFTLTISSLQPEDFATYYCQQIYSFPITFGQGTKVEIKR
notes: Vk dAb
On to B10, for which the binding result is recorded as “binds”.

B11: DOM.107 (other)
VL: DIQMTQSPSSLSASVGDRVTITCRASQAIGHRLRWYQQKPGKAPKLLIYHRSKLQSGVPSRFSGSGSGTDFTLTISSLQPEDFATYYCQQTYSSPHTFGQGTKVEIKR
notes: Vk dAb
Regarding B11, the binding result is “binds”.

B12: DOM.89 (other)
VL: DIQMTQSPASLSASVGDRVTITCRASQDIDPMLRWYQQKPGKAPKLLIYAGSILQSGVPSRFSGSGSGTDFTLTISSLQPEDFATYYCQQTLVTPYTFGQGTKVEIKR
notes: Vk dAb
For the molecule B12, the binding result is listed as “binds”.

B13: DOM.157 (other)
VL: DIQMTQSPSSLSASVGDRVTITCRASQNIGEDLEWYQQKPGNAPKLLIYSASHLQSGVPSRFSGSGSGTDFTLTISSLQPEDFATYYCQQYSSYPVTFGQGTKVEIKR
notes: Vk dAb
On to B13, for which the binding result is recorded as “binds”.

B14: DOM-116 (other)
VL: DIQMTQSPSSLSASVGDRVTITCRASQPIGPDLLWYQQKPGKAPKLLIYQTSILQSGVPSRFSGSGSGTDFTLTISSLQPEDFATYYCQQYWAFPVTFGQGTKVEIKR
notes: Vk dAb
As for B14, the binding result is listed as “binds”.

B15: DOM-38 (other)
VL: DIQMTQSPSSLSASVGDRVTITCRASQDIGNNLEWYQQKPGKAPRLLIYHGSWLQSGVPSRFSGSGSGTDFTLTISSLQPEDFATYYCQQYDFNPTTFGQGTKVEIKR
notes: Vk dAb
Take B15: the binding result is listed as “binds”.

B16: DOM.103 (other)
VL: DIQMTQSPSSLSASVGDRVTITCRASQAIGHRLRWYQQKPGKAPKLLIYHRSKLQSGVPSRFSGSGSGTDFTLTISSLQPEDFATYYCQQVRAVPYTFGQGTKVEIKR
notes: Vk dAb
As to B16, the binding result is “binds”.

B17: DOM.159 (other)
VL: DIQMIQSPSSLSASVGDRVTITCRASQDINEDLEWYQQKPGKAPKLLIYNASMLQSGVPSRFSGSGSGTDFTLTISSLQPKDFATYYCQQYHTNPTTFGQGTKVEIKR
notes: Vk dAb
Regarding B17, the binding result is “binds”.

B18: DOM-49 (other)
VL: DVQMTQSPSSLSASVGDRVTITCRASQWIGDSLSWYQQKPGKAPKLLIYFGSYLQSGVPSRFSGSGSGTDFTLTISSLQPEDFATYYCQQYMSAPSTFGQGTKVEIKR
notes: Vk dAb
On to B18, for which the binding result is reported as “binds”.

B19: DOM.158 (other)
VL: DIQMTQSPSSLSASVGDRVTITCRASQPIDEDLEWYQQKPGNAPKLLIYSASYLQSGVPSRFSGSGSGTDFTLTISRLQPEDFATYYCQQYHLLPATFGQGTKVEIKR
notes: Vk dAb
Consider B19, for which the binding result was “binds”.

B20: DOM.142 (other)
VL: DIQMTQSPSSLSASVGDRVTITCRASQFIGDSLSWYQQKPGKAPKLLIYFSSILQSGVPSRFSGSGSGTDFTLTISSLQPEDFATYYCQQYHTSPTTFGRGTKVKIKR
notes: Vk dAb
Turning to B20, the binding result is reported as “binds”.

B21: DOM-52 (other)
VL: DIQMTQSPSSLSASVGDRVTITCRASQDIGSALRWYQQKPGKAPKLLIYLGSDLQSGVPSRFSGSGSGTDFTLTISSLQPEDFATYYCQQTQYFPTTFGQGTKVEIKR
notes: Vk dAb
As to B21, the binding result is “binds”.

B22: DOM.161 (other)
VL: DIQMTQSPSSLSASVGDRVTITCRASQDIDSDLEWYQQKPGKAPMLLIYSSSDLQSGVPSRFSGSGSGTDFTLTISSLQPEDFATYYCQQYHSLPVTFGQGTKVEIKR
notes: Vk dAb
Turning to B22, the binding result was “binds”.

B23: DOM.101 (other)
VL: DIQMTQSPSSLSASVGDRVTITCRASQAIGHRLRWYQQKPGKAPKLLIYHRSKLQSGVPSRFSGSGSGTDFTLTISSLQPEDFATYYCQQVALFPYTFGQGTKVEIKR
notes: Vk dAb
Take B23: the binding result is reported as “binds”.

B24: DOM.144 (other)
VL: DIQMTQSPSSLSASVGDRVTITCRASQMIDQDLEWYQQKPGKAPKLLIYNASWLQSGVPSRFSGSGSGTDFTLTISSLQPEDFATYYCQQYHGYPITFGQGTKVEIKR
notes: Vk dAb
Consider B24, for which the binding result is “binds”.

B25: DOM.105 (other)
VL: DIQMTQSPSSLSASVGDRVTITCRASQAIGHRLRWYQQKPGKAPKLLIYHRSKLQSGVPSRFSGSGSGTDFTLTISSLQPEDFATYYCQQSYARPVTFGQGTKVEIKR
notes: Vk dAb
On to B25, for which the binding result is on record as “binds”.

B26: DOM.110 (other)
VL: DIQMTQSPASLSASVGDRVTITCRASQDIDPMLRWYQQKPGKAPKLLIYAGSILQSGVPSRFSGSGSGTDFTLTISSLQPEDFATYYCQQTSIRPYTFGQGTKVEIKR
notes: Vk dAb
Regarding B26, the binding result is “binds”.

B27: DOM.109 (other)
VL: DIQMTQSPSSLSASVGDRVTITCRASQAIGHRLRWYQQKPGKAPKLLIYHRSKLQSGVPSRFSGSGSGTDFTLTISSLQPEDFATYYCQQTYYRPLTFGQGTKVEIKR
notes: Vk dAb
For the molecule B27, the binding result is on record as “binds”.

B28: DOM.106 (other)
VL: DIQMTQSPSSLSASVGDRVTITCRASQSINHRLYWYQQKPGKAPKLLIYHRSRLQSGVPSRFSGSGSGTDFTLTISSLQPEDFATYYCQQYKVRPNTFGQGTKVEIKR
notes: Vk dAb
As to B28, the binding result is listed as “binds”.

B29: DOM-86 (other)
VL: DIQMTQSPSSLSASVGDRVTITCRASQDIGDALFWYQQKPGKAPKLLIYYSSMLQSGVPSRFSGGGSGTDFTLTISSLQPEDFATYYCQQRHSTPATFGQGTKVEIKR
notes: Vk dAb
Consider B29, for which the binding result is recorded as “binds”.

B30: DOM.154 (other)
VL: DIQMTQSPSSLSASVGDRVTITCRASQDIEEMLHWYQQKPGKAPKLLIYFGSLLQSGVPSRFSGSRSGTDFTLTISSLQPEDFATYYCQQHHTRPYTFGQGTKVEIKR
notes: Vk dAb
For B30, the binding result is on record as “binds”.

B31: DOM.104 (other)
VL: DIQMTQSPSSLSASVGDRVTITCRASQAIGHRLRWYQQKPGKAPKLLIYHRSKLQSGVPSRFSGSGSGTDFTLTISSLQPEDFATYYCQQVRFSPYTFGQGTKVEIKR
notes: Vk dAb
Take B31: the binding result is “binds”.

B32: DOM.155 (other)
VL: DIQMTQSPSSLSASVGDRVTITCRASQDIGMDLEWYQQIPGKVPKLLIYDASYLQSGVPSRFSGSGSGTDFTLTISSLQPEDFATYYCQQYHKLPATFGQGTKVEIKR
notes: Vk dAb
For the molecule B32, the binding result was “binds”.

B33: DOM.108 (other)
VL: DIQMTQSPSSLSASVGDRVTITCRASQAIGHRLRWYQQKPGKAPKLLIYHRSKLQSGVPSRFSGSGSGTDFTLTISSLQPEDFATYYCQQRAVRPFTFGQGTKVEIKR
notes: Vk dAb
B33: the binding result was “binds”.
